From patent US20210373021A1 come the findings set out here.

In the test the target is SNAP-25 Reporter 1 (human) (UniProt P60880). Description: cell-based or functional assay.
UniProt P60880, sequence (P60880 other isoform, or with tags, fused parts or gaps limits assumed): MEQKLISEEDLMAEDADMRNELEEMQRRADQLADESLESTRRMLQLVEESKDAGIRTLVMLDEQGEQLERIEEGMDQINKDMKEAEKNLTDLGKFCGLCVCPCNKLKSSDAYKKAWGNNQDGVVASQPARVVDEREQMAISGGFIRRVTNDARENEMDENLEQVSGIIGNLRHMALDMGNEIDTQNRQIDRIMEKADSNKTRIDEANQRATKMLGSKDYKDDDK

In the case of “Galderma BoNT/A drug product QM-1114 (from UniProt P0DPI0 2-1296) (enzyme)”, the EC50 of SNAP-25 cleavage (Western blot), 4 hours at ambient temperature was determined as 844 U/ml; the EC50 of SNAP-25 cleavage (Western blot), 22 hours at 37° C. came to 687 U/ml; the EC50 of SNAP-25 cleavage (Western blot), 22 hours at room temperature stood at 204 U/ml; the EC50 of uncleaved product in RLU (sandwich ELISA), 22 hours at 37° C. was 112 U/ml. For the same substance, the EC50 of uncleaved product in RLU (sandwich ELISA), 22 hours at room temperature turned out to be 55.3 U/ml.
